Measured values taken from IntAct's records for PubMed 20876572.

B1: Methylmalonic aciduria type A protein, mitochondrial (Homo sapiens), Q8IVH4 (parent)
chain: MPMLLPHPHQHFLKGLLRAPFRCYHFIFHSSTHLGSGIPCAQPFNSLGLHCTKWMLLSDGLKRKLCVQTTLKDHTEGLSDKEQRFVDKLYTGLIQGQRACLAEAITLVESTHSRKKELAQVLLQKVLLYHREQEQSNKGKPLAFRVGLSGPPGAGKSTFIEYFGKMLTERGHKLSVLAVDPSSCTSGGSLLGDKTRMTELSRDMNAYIRPSPTRGTLGGVTRTTNEAILLCEGAGYDIILIETVGVGQSEFAVADMVDMFVLLLPPAGGDELQGIKRGIIEMADLVAVTKSDGDLIVPARRIQAEYVSALKLLRKRSQVWKPKVIRISARSGEGISEMWDKMKDFQDLMLASGELTAKRRKQQKVWMWNLIQESVLEHFRTHPTVREQIPLLEQKVLIGALSPGLAADFLLKAFKSRD
partner: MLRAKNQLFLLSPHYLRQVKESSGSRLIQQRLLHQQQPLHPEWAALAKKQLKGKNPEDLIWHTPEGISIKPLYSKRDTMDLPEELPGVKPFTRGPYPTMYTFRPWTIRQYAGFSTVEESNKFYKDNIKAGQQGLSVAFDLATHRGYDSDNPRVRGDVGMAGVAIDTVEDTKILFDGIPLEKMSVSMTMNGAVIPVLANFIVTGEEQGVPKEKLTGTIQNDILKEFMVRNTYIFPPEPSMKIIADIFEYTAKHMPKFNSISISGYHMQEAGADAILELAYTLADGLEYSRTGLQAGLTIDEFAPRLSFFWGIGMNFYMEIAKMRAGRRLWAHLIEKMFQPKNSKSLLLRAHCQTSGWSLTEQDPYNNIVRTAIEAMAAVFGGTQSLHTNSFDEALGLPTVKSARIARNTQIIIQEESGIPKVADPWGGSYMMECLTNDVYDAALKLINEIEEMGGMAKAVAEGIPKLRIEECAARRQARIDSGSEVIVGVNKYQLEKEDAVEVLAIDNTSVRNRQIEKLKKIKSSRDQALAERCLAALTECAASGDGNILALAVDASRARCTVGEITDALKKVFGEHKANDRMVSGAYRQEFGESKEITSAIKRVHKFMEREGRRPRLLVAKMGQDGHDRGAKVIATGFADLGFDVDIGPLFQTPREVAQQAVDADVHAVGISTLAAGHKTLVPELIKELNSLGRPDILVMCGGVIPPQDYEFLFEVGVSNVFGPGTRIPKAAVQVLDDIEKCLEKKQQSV

Variants of: B1
Conditions: with muta_human MMUT

| effect of a mutation on the interaction | Variant |
| --- | --- |
| disrupting interaction strength | MPMLLPHPHQHFLKGLLRAPFRCYHFIFHSSTHLGSGIPCAQPFNSLGLHCTKWMLLSDGLKRKLCVQTTLKDHTEGLSDKEQRFVDKLYTGLIQGQRACLAEAITLVESTHSRKKELAQVLLQKVLLYHREQEQSNKGKPLAFRVGLSGPPGAGKSTFIEYFGKMLTERGHKLSVLAVDPSSCTSGRSLLGDKTRMTELSRDMNAYIRPSPTRGTLGGVTRTTNEAILLCEGAGYDIILIETVGVGQSEFAVADMVDMFVLLLPPAGGDELQGIKRGIIEMADLVAVTKSDGDLIVPARRIQAEYVSALKLLRKRSQVWKPKVIRISARSGEGISEMWDKMKDFQDLMLASGELTAKRRKQQKVWMWNLIQESVLEHFRTHPTVREQIPLLEQKVLIGALSPGLAADFLLKAFKSRD [G188R] |
